The target of the assay is T1, Human Replication Protein A 32 (RPA32) (human, UniProt P15927 1-270, limits assumed).
T1 construct: Used in the yeast two-hybrid system; also called Replication Protein A 32KD subunit; 32-kDa middle subunit of RPA
Kind of assay: yeast two-hybrid system (method named in paragraph 31).

T1 sequence (P15927 whole entry): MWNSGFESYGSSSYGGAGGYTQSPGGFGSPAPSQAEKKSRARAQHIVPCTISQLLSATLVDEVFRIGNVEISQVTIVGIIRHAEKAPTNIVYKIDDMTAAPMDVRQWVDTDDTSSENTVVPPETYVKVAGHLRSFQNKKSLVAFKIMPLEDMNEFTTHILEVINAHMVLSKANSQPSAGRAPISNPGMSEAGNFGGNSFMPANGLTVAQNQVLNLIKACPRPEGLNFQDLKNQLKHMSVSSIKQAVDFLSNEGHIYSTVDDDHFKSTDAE

B1: replication protein A binding transcriptional activator 1 (RBT1) (other)
chain: MEGGLKRKHSDLEEEEERWEWSPAGLQSYQQALLRISLDKVQRSLGPRAPSLRRHVLIHNTLQQLQAALRLAPAPALPPEPLFLGEEDFSLSATIGSILRELDTSMDGTEPPQNPVTPLGLQNEVPPQPDPVFLEALSSRYLGDSGLDDFFLDIDTSAVEKEPARAPPEPPHNLFCAPGSWEWNELDHIMEIILGS
notes: Open reading frame of 196 amino acids
Regarding B1, the binding result is “binds”.

(Values after patent US7094891 (CENTER FOR TRANSLATION RESEARCH IN CANCER, dated 2006).)
